Assay results from patent US7423021B2, “Peptidic thrombin inhibitors” (NSCI Novel Science International GmbH, priority 2003, dated 2008).
Numbered stars: 1 amine (or outer) side, 2 acyl side, 3 side chain; on linkers, the order of the positions; unused ones are H or OH. Square brackets hold non-standard residues; d marks the D form. Peptide text beside a SMILES is read from it. * marks the point of attachment. Ppd = 4-phenylpiperidine-4-carboxylic acid, O=C(C1(c2ccccc2)CCN([*:1])CC1)[*:2]; Phe(4-NO2) = N[C@@H](Cc1ccc([N+](=O)[O-])cc1)C(=O)O; Tpi = O=C(O)[C@@H]1Cc2c([nH]c3ccccc23)CN1; X1 = N=C(N)NC[C@H]1CC[C@H](C(=O)*)CC1; hArg = N=C(N)NCCCC[C@H](N)C(=O)O; Tic = O=C(O)[C@@H]1Cc2ccccc2CN1; Cha = N[C@@H](CC1CCCCC1)C(=O)O; dCha = N[C@H](CC1CCCCC1)C(=O)O; Phg = N[C@H](C(=O)O)c1ccccc1; Dcp = dichlorophenylalanine; Nle = CCCC[C@H](N)C(=O)O; Aze = O=C(O)[C@@H]1CCN1

Target: thrombin (Homo sapiens, UniProt P00734)
Test: in-vitro inhibition of the amidase activity of thrombin (fluorogenic substrate Tos-Gly-Pro-Arg-AMC)
Type: biochemical
Parameters: 10 μl of human thrombin solution
Experimental: The values of the inhibiting constants Ki were obtained from assays in which thrombin hydrolyzes the fluorogenic substrate Tos-Gly-Pro-Arg-(7-amino-4-methylcumarin). The assays were carried out in […] of assay buffer (0.05 M tris, 0.1 M NaCl, 0.1% PEG 8000, pH 7.6) with 10 μl of human thrombin solution (10^−5 U/μl in the assay buffer) and 140 μl of a solution of the fluorogenic substrate in an assay buffer at a concentration of 30 μM. Solutions of the test compound (10 μl) were added at various concentrations. The rates of the hydrolysis of the substrate were measured by monitoring the reactions at […] of the release of 7-amino-4-methylcumarin using AMC. The reaction reached an equilibrium state within three minutes, after thrombin, the substrate, and an inhibitor were mixed. The kinetic data of the competing inhibition (Km, Vmax, and Ki) were analyzed by means of the representation according to Hanes (A/V against A at various values of A, where A is the substrate concentration and V the reaction rate).

[1] = peptide concentration of 250 nM

Compound | inhibition of the amidase activity of the thrombin (peptide concentration of 1 μM) [%] | inhibition of the amidase activity of the thrombin [1] [%] | also measured
N=C(N)NCCCC[C@H](NC(=O)[C@@H](Cc1ccc(O)cc1)NC(=O)[C@@H]1CCN1C(=O)[C@@H](CC1CCCCC1)NC(=O)[C@H]1CC[C@H](CNC(=N)N)CC1)C(N)=O [Example 31, Trans-4-(guanidinomethyl)cyclohexanecarboxylic acid-D-Cha-L-Aze-D-Try-L-Har amide] (X1-[dCha][Aze][dY][hArg]-NH2) | – | – | Ki: 3 nM
N-acetyl-D-Gln-D-His-L-Cha-D-Pro-D-Tyr-L-Arg amide (Ac-[dQ][dH][Cha][dP][dY]R-NH2; SMILES CC(=O)N[C@H](CCC(N)=O)C(=O)N[C@H](Cc1c[nH]cn1)C(=O)N[C@@H](CC1CCCCC1)C(=O)N1CCC[C@@H]1C(=O)N[C@H](Cc1ccc(O)cc1)C(=O)N[C@@H](CCCNC(=N)N)C(N)=O) [Example 1] | 59 | – | –
N-acetyl-D-Glu-L-Cha-D-Pro-D-Tyr-L-Arg amide (Ac-[dE][Cha][dP][dY]R-NH2; SMILES CC(=O)N[C@H](CCC(=O)O)C(=O)N[C@@H](CC1CCCCC1)C(=O)N1CCC[C@@H]1C(=O)N[C@H](Cc1ccc(O)cc1)C(=O)N[C@@H](CCCNC(=N)N)C(N)=O) [Example 2] | 58 | – | –
N-acetyl-D-Lys-L-Nle-L-Cha-D-Pro-D-Tyr-L-Arg amide (Ac-[dK][Nle][Cha][dP][dY]R-NH2; SMILES CCCC[C@H](NC(=O)[C@@H](CCCCN)NC(C)=O)C(=O)N[C@@H](CC1CCCCC1)C(=O)N1CCC[C@@H]1C(=O)N[C@H](Cc1ccc(O)cc1)C(=O)N[C@@H](CCCNC(=N)N)C(N)=O) [Example 12] | 48 | – | –
N-acetyl-D-Phe-D-Cha-L-Aze-D-Tyr-L-Har amide (Ac-[dF][dCha][Aze][dY][hArg]-NH2; SMILES CC(=O)N[C@H](Cc1ccccc1)C(=O)N[C@H](CC1CCCCC1)C(=O)N1CC[C@H]1C(=O)N[C@H](Cc1ccc(O)cc1)C(=O)N[C@@H](CCCCNC(=N)N)C(N)=O) [Example 20] | – | 77 | –
N-acetyl-D-Tyr-L-Cha-D-Pro-D-Tyr-L-Arg amide (Ac-[dY][Cha][dP][dY]R-NH2; SMILES CC(=O)N[C@H](Cc1ccc(O)cc1)C(=O)N[C@@H](CC1CCCCC1)C(=O)N1CCC[C@@H]1C(=O)N[C@H](Cc1ccc(O)cc1)C(=O)N[C@@H](CCCNC(=N)N)C(N)=O) [Example 13] | 47 | – | –
N-acetyl-D-Val-D-His-L-Cha-D-Pro-D-Tyr-L-Arg amide (Ac-[dV][dH][Cha][dP][dY]R-NH2; SMILES CC(=O)N[C@@H](C(=O)N[C@H](Cc1c[nH]cn1)C(=O)N[C@@H](CC1CCCCC1)C(=O)N1CCC[C@@H]1C(=O)N[C@H](Cc1ccc(O)cc1)C(=O)N[C@@H](CCCNC(=N)N)C(N)=O)C(C)C) [Example 3] | 51 | – | –
N-acetyl-D-Val-L-Cha-D-Pro-D-Tyr-L-Arg amide (Ac-[dV][Cha][dP][dY]R-NH2; SMILES CC(=O)N[C@@H](C(=O)N[C@@H](CC1CCCCC1)C(=O)N1CCC[C@@H]1C(=O)N[C@H](Cc1ccc(O)cc1)C(=O)N[C@@H](CCCNC(=N)N)C(N)=O)C(C)C) [Example 8] | 45 | – | –
N-acetyl-L-Ala-D-Cha-L-Aze-D-Tyr-L-Arg amide (Ac-A[dCha][Aze][dY]R-NH2; SMILES CC(=O)N[C@@H](C)C(=O)N[C@H](CC1CCCCC1)C(=O)N1CC[C@H]1C(=O)N[C@H](Cc1ccc(O)cc1)C(=O)N[C@@H](CCCNC(=N)N)C(N)=O) [Example 16] | 63 | – | –
N-acetyl-L-Ala-D-Cha-L-Aze-D-Tyr-L-Har amide (Ac-A[dCha][Aze][dY][hArg]-NH2; SMILES CC(=O)N[C@@H](C)C(=O)N[C@H](CC1CCCCC1)C(=O)N1CC[C@H]1C(=O)N[C@H](Cc1ccc(O)cc1)C(=O)N[C@@H](CCCCNC(=N)N)C(N)=O) [Example 19] | – | 77 | –
N-acetyl-L-Ala-D-Cha-L-Pro-D-Tyr-L-Har amide (Ac-A[dCha]P[dY][hArg]-NH2; SMILES CC(=O)N[C@@H](C)C(=O)N[C@H](CC1CCCCC1)C(=O)N1CCC[C@H]1C(=O)N[C@H](Cc1ccc(O)cc1)C(=O)N[C@@H](CCCCNC(=N)N)C(N)=O) [Example 17] | 56 | – | –
N-acetyl-L-Ala-L-Cha-D-Pro-D-Tyr-L-Arg amide (Ac-A[Cha][dP][dY]R-NH2; SMILES CC(=O)N[C@@H](C)C(=O)N[C@@H](CC1CCCCC1)C(=O)N1CCC[C@@H]1C(=O)N[C@H](Cc1ccc(O)cc1)C(=O)N[C@@H](CCCNC(=N)N)C(N)=O) [Example 4] | 44 | – | –
N-acetyl-L-Arg-L-Cha-D-Pro-D-Tyr-L-Arg amide (Ac-R[Cha][dP][dY]R-NH2; SMILES CC(=O)N[C@@H](CCCNC(=N)N)C(=O)N[C@@H](CC1CCCCC1)C(=O)N1CCC[C@@H]1C(=O)N[C@H](Cc1ccc(O)cc1)C(=O)N[C@@H](CCCNC(=N)N)C(N)=O) [Example 14] | 47 | – | –
N-acetyl-L-Cha-D-Cha-L-Aze-D-Tyr-L-Har amide (Ac-[Cha][dCha][Aze][dY][hArg]-NH2) [Example 28] | – | 90 | –
N-acetyl-L-Dcp-D-Cha-L-Aze-D-Tyr-L-Har amide (Ac-[Dcp][dCha][Aze][dY][hArg]-NH2) [Example 21] | – | 75 | –
N-acetyl-L-Ile-L-Arg-L-Cha-D-Pro-D-Tyr-L-Arg amide (Ac-IR[Cha][dP][dY]R-NH2; SMILES CC[C@H](C)[C@H](NC(C)=O)C(=O)N[C@@H](CCCNC(=N)N)C(=O)N[C@@H](CC1CCCCC1)C(=O)N1CCC[C@@H]1C(=O)N[C@H](Cc1ccc(O)cc1)C(=O)N[C@@H](CCCNC(=N)N)C(N)=O) [Example 5] | 61 | – | –
N-acetyl-L-Iq3-D-Cha-L-Aze-D-Tyr-L-Har amide (Ac-[Tic][dCha][Aze][dY][hArg]-NH2) [Example 23] | – | 72 | –
N-acetyl-L-Nhm-D-Cha-L-Aze-D-Tyr-L-Har amide (Ac-[Tpi][dCha][Aze][dY][hArg]-NH2; SMILES CC(=O)N1Cc2[nH]c3ccccc3c2C[C@H]1C(=O)N[C@H](CC1CCCCC1)C(=O)N1CC[C@H]1C(=O)N[C@H](Cc1ccc(O)cc1)C(=O)N[C@@H](CCCCNC(=N)N)C(N)=O) [Example 22] | – | 80 | –
N-acetyl-L-Nle-D-Cha-L-Aze-D-Tyr-L-Har amide (Ac-[Nle][dCha][Aze][dY][hArg]-NH2; SMILES CCCC[C@H](NC(C)=O)C(=O)N[C@H](CC1CCCCC1)C(=O)N1CC[C@H]1C(=O)N[C@H](Cc1ccc(O)cc1)C(=O)N[C@@H](CCCCNC(=N)N)C(N)=O) [Example 27] | – | 89 | –
N-acetyl-L-Phg-D-Cha-L-Aze-D-Tyr-L-Har amide (Ac-[Phg][dCha][Aze][dY][hArg]-NH2) [Example 26] | – | 95 | –
N-acetyl-L-Pnp-D-Cha-L-Aze-D-Tyr-L-Har amide (Ac-[Phe(4-NO2)][dCha][Aze][dY][hArg]-NH2; SMILES CC(=O)N[C@@H](Cc1ccc([N+](=O)[O-])cc1)C(=O)N[C@H](CC1CCCCC1)C(=O)N1CC[C@H]1C(=O)N[C@H](Cc1ccc(O)cc1)C(=O)N[C@@H](CCCCNC(=N)N)C(N)=O) [Example 29] | – | 72 | –
N-acetyl-L-Ppd-D-Cha-L-Aze-D-Tyr-L-Har amide (Ac-[Ppd][dCha][Aze][dY][hArg]-NH2) [Example 24] | – | 76 | –
